A word on the pKd: it is −log10 of the Kd, conventionally taken in molar units.

The values below come from publication PMC9482650, “Quantitative fragmentomics allow affinity mapping of interactomes” (Nature Communications, 2022).

Common to all, as to experiment: holdup assay
Common to all, as to set-up: key: below the threshold = too weak to quantify, mostly under pKd 3.1 to 4
Holding throughout (settings): plain residues with an end cap or a label only (N-terminal biotin on a linker: ado-ado)

Assay [1] has as its target T1, APBA1_1, Q02410.
T1 sequence (Q02410 651-752, limits assumed, looked up): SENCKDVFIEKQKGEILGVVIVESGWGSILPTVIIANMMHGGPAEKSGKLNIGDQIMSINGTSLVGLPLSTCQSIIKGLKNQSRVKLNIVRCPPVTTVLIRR

Assay [2] concerns the target T2, ARHGEF11, O15085.
T2 sequence (O15085 42-136, limits assumed, looked up): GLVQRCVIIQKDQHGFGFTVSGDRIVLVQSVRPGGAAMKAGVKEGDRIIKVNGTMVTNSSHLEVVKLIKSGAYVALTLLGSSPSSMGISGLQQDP

Assay [3] concerns the target T3, DLG3_2, Q92796.
T3 sequence (Q92796 221-321, limits assumed, looked up): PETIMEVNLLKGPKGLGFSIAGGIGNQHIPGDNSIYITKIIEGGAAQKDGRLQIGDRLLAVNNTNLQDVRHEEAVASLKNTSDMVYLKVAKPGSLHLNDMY

The target in assay [4] is T4, DVL3, Q92997.
T4 sequence (Q92997 244-331, limits assumed, looked up): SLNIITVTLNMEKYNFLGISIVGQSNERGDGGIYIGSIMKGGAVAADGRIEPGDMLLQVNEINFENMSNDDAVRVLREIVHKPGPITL

In assay [5] the target is FRMPD2_2, Q68DX3.
The target of assay [6] is FRMPD2_3, Q68DX3.
Assay [7] has as its target GRASP, Q7Z6J2.
Assay [8] concerns the target GRID2IP_2, A4D2P6.
Assay [9] deals with T5, GRIP1_4, Q9Y3R0.
T5 sequence (Q9Y3R0 467-571, limits assumed, looked up): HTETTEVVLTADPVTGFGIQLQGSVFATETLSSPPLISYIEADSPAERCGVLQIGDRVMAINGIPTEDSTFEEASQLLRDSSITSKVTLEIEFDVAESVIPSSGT

The target of assay [10] is Inadl_6, Q8NI35.
Assay [11] concerns the target LAP2, Q96RT1.
Assay [12] concerns the target T6, LIN7B, Q9HAP6.
T6 sequence (Q9HAP6 88-185, limits assumed, looked up): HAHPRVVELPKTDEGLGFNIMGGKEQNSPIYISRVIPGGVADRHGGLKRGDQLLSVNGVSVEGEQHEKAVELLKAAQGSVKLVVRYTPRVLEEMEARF

Assay [13] addresses T7, LIN7C, Q9NUP9.
T7 sequence (Q9NUP9 88-185, limits assumed, looked up): T6 sequence (Q9HAP6 88-185, limits assumed, looked up) with A2S, D13E, V35I, V40I, Q65H, S79K, R89K, A96S

Assay [14] has as its target LNX1_2, Q8TBB1.
In assay [15] the target is MAGI1_2, Q96QZ7.
Assay [16] has as its target T8, MPDZ_10, O75970.
T8 sequence (O75970 1624-1722, limits assumed, looked up): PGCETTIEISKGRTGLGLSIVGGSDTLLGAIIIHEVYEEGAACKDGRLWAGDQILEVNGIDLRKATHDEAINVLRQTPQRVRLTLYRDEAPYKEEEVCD

The target in assay [17] is T9, MPDZ_5, O75970.
T9 sequence (O75970 695-796, limits assumed, looked up): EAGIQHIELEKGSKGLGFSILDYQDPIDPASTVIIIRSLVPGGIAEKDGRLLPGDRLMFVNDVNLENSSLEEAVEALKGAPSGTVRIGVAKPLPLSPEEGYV

For assay [18], the target named is T10, PDZD2_2, O15018.
T10 sequence (O15018 329-429, limits assumed, looked up): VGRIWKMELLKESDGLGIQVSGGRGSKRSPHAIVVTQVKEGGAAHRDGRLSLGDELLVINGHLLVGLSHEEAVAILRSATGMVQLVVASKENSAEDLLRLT

For assay [19], the target named is PICK1, Q9NRD5.
The target in assay [20] is T11, SNTB1, Q13884.
T11 sequence (Q13884 107-205, limits assumed, looked up): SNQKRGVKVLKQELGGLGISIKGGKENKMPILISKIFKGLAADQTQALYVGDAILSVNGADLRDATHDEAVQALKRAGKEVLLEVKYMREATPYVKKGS

Assay [21] deals with SNX27, Q96L92.
In assay [22] the target is T12, TIAM2, Q8IVF5.
T12 sequence (Q8IVF5 885-986, limits assumed, looked up): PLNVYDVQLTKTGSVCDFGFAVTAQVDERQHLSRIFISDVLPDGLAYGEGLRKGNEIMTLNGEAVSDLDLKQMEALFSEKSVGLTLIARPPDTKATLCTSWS

Assay [23] concerns the target T13, TX1BP3, O14907.
T13 sequence (O14907 10-122, limits assumed, looked up): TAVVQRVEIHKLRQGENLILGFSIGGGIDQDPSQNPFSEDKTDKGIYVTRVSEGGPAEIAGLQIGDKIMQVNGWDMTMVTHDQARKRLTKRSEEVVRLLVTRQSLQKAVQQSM

Numbering of substitutions follows the chain as printed.

Sequence of GRASP, Q7Z6J2 (Q7Z6J2 96-193): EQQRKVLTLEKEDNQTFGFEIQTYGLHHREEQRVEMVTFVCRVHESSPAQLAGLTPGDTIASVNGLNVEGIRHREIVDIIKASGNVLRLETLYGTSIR
Sequence of PICK1, Q9NRD5 (Q9NRD5 17-115): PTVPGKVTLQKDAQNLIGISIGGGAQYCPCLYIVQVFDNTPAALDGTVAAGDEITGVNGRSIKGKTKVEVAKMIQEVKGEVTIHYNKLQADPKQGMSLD
Sequence of FRMPD2_2, Q68DX3 (Q68DX3 944-1038): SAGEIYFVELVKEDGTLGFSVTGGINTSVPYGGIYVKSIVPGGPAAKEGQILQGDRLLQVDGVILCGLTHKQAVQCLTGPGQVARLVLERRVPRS
Sequence of LAP2, Q96RT1 (Q96RT1 other isoform, or with tags, fused parts or gaps): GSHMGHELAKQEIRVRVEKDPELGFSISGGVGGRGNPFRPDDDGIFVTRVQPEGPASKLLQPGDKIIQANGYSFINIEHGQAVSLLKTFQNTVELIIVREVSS
Sequence of LNX1_2, Q8TBB1 (Q8TBB1 371-470): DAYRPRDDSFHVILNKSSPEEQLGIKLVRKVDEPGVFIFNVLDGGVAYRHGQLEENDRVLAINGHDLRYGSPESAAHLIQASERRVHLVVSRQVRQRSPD
Sequence of GRID2IP_2, A4D2P6 (A4D2P6 272-370): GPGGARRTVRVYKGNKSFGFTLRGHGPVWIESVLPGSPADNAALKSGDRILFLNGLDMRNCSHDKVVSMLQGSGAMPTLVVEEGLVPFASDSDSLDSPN
Sequence of MAGI1_2, Q96QZ7 (Q96QZ7 456-580): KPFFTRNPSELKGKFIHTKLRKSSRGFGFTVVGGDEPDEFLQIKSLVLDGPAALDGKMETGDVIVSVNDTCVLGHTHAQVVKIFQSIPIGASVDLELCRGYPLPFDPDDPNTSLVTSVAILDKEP
Sequence of Inadl_6, Q8NI35 (Q8NI35 1058-1167): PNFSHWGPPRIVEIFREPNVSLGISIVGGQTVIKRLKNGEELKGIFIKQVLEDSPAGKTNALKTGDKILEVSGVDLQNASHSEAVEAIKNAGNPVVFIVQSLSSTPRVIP
Sequence of FRMPD2_3, Q68DX3 (Q68DX3 1073-1166): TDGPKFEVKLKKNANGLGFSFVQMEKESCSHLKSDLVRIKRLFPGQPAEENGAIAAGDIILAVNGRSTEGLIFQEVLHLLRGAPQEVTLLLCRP

On to KAEEKPPSKV [SCN4B, Q8IWT1], for which the pKd entry in [1], in [2], in assay [3], in assay [4], in [5] and in [6] was “below the threshold” throughout. Besides, the pKd result is “below the threshold” in assay [7]; “below the threshold” in assay [8]; “below the threshold” in [9]; “below the threshold” in [10]; 3.89 in [11]; “below the threshold” in assay [12]. Besides, the pKd entry in assay [13] is “below the threshold”; in assay [14] it was “below the threshold”; in assay [15] it was “below the threshold”; in assay [16], 3.71; in [17], “below the threshold”; in assay [18], 3.95. Also, the pKd in [19] is 4.21; in assay [20], “below the threshold”; in assay [21] it was “below the threshold”; in assay [22], “below the threshold”; in [23] it was “below the threshold”.

As for PSDSVGKDVF [EGLN1, Q9GZT9], the negative logarithm of the Kd (pKd) result was “below the threshold” in assay [1]; “below the threshold” in [2]; 4.07 in assay [3]; “below the threshold” in assay [4]; “below the threshold” in assay [5]; “below the threshold” in [6]. The pKd in assay [7] was 3.7; in assay [8], “below the threshold”; in assay [9], “below the threshold”; in assay [10], “below the threshold”; in assay [11] it was “below the threshold”; in assay [12] it was 3.55. In addition, the negative-log Kd (pKd) entry in [13] was “below the threshold”; in assay [14], “below the threshold”; in assay [15], “below the threshold”; in assay [16] it was “below the threshold”; in assay [17], “below the threshold”; in [18], 3.62. Besides, the pKd entry in [19] is “below the threshold”; in assay [20], “below the threshold”; in assay [21] it was “below the threshold”; in assay [22], 4.05; in [23], “below the threshold”.

As for THREVKFTSL [CD46, P15529], the pKd entry in [1] is “below the threshold”; in assay [2] it was 4.75; in assay [3] it was 4.23; in assay [4], “below the threshold”; in assay [5], “below the threshold”; in assay [6], “below the threshold”. The pKd was 4.77 in [7]; 4.95 in assay [8]; “below the threshold” in [9]; 3.7 in assay [10]; “below the threshold” in [11]; 3.88 in assay [12]. In addition, the pKd entry is “below the threshold” in assay [13]; “below the threshold” in assay [14]; 3.81 in [15]; “below the threshold” in [16]; “below the threshold” in assay [17]; 4.26 in [18]. In addition, the pKd was determined as 4.08 in assay [19]; 4.86 in [20]; 4.35 in assay [21]; 4.06 in assay [22]; 4.37 in assay [23].

Regarding VYEVPVETKF [SLC26A3, P40879], the pKd entry in assay [1] was “below the threshold”; in [2], 3.62; in assay [3], 4.13; in assay [4], “below the threshold”; in assay [5] it was “below the threshold”; in [6] it was 3.52. Further, the pKd in assay [7] is 3.81; in [8] it was “below the threshold”; in [9] it was “below the threshold”; in [10] it was “below the threshold”; in [11], “below the threshold”; in assay [12], 4.21. Besides, the pKd in assay [13] was 4.01; in assay [14] it was “below the threshold”; in [15], “below the threshold”; in assay [16], “below the threshold”; in assay [17] it was “below the threshold”; in [18], 3.72. The negative logarithm of the Kd (pKd) in assay [19] is 4.19; in assay [20], “below the threshold”; in [21], 5.33; in assay [22] it was 3.98; in assay [23], “below the threshold”.

On to QKNKDREYYV [NRXN3, Q9HDB5], for which the pKd entry was “below the threshold” in assay [1]; 4.2 in assay [2]; 3.65 in [3]; 4.02 in assay [4]; 3.78 in [5]; 4.38 in [6]. The pKd result was “below the threshold” in [7]; 3.52 in assay [8]; “below the threshold” in assay [9]; “below the threshold” in [10]; “below the threshold” in assay [11]; “below the threshold” in assay [12]. Moreover, the pKd was 3.59 in assay [13]; 4.08 in [14]; “below the threshold” in assay [15]; “below the threshold” in assay [16]; 4.71 in [17]; 4.56 in [18]. Further, the pKd entry is “below the threshold” in assay [19]; 3.65 in assay [20]; 3.64 in assay [21]; 4.41 in assay [22]; “below the threshold” in [23].
